# Measurements: US20230053258A1 (RAMOT AT TEL AVIV UNIVERSITY, published 2023)
# Molecular target: T1, recombinant human wild type insulin degrading enzyme (WT rhIDE) (human, UniProt P14735 42-1019)
# T1 construct: also called WT IDE; active IDE
# Test: ELISA on coated WT rhIDE
# Experimental: Following 3 washes with PBST, 3,3′,5,5′-tetramethylbenzidine (TMB; eBioscience, San Diego, Calif., USA) was added until color appeared. The reaction was stopped by adding 1 M H₂SO₄, and analyzed using a Spectrafluor plus microplate reader at 450 nm.
row,EC50 [nM],Binder
1,~1,"A9 Inclonal IgG (human IgG1) (antibody, V domains shown, also called A9 IgG; IgG A9) VH: EVQLLESGGGLVQPGGSLRLSCAASGFTFRSYGMHWVRQAPGRGLEWVSAINSNGDSTYYPDTVKDRFTISRDNSKNTLYLQMNSLRAEDTAVYYCARADYYDSTGYYYHGLDLWGQGTLVTVSS VL: DIVLTQPPSASGTPGQRVTISCSGSRDNIGKNYVSWYQQLPGTAPKLLIYRNNQRPSGVPDRFSGSKSGTSASLAISGLRSEDEADYYCSSYAGSSVIFGGGTKVTVL"
2,~1,"B1 Inclonal IgG (human IgG1) (antibody, V domains shown, also called B1 IgG) VH: not shown VL: DIVLTQSPGTLSLSPGERATLSCRASQSVSSHLAWYQQKPGQAPRLLIYDASNRATGIPDRFSGSGSGTDFTLTISRLEPEDFAVYYCQQYDSYPYTFGQGTKLDIK"
